Measured values from the DeepSol protein solubility set.

Assay: soluble on expression in E. coli; label from the status in PepcDB or PDB records

Sequence	soluble on expression in E. coli
MSVKVIVTDMDGTFLNDAKTYNQPRFMAQYQELKKRGIKFVVASGNQYYQLISFFPELKDEISFVAENGALVYEHGKQLFHGELTRHESRIVIGELLKDKQLNFVACGLQSAYVSENAPEAFVALMAKHYHRLKPVKDYQEIDDVLFKFSLNLPDEQIPLVIDKLHIALDGIMKPVTSGFGFIDLIIPGLHKANGISRLLKRWDLSPQNVVAIGDSGNDAEMLKMARYSFAMGNAAENIKQIARYATDDNNHEGALNVIQAVLDNTSPFNS	not soluble
MSVNNIDQLLGELKSAAALASGKQAPAAQQTPQVDFSDVLKSTIEQVNSAQQTSEEMQKQFQLGDNKEVNLQDVMMSLQKASLSFQTMVQARNKLVSAYQEIMNTQV	not soluble
MSVVEEATDDALYPIAVLIDELRNEDVTLRLNSIRKLSTIALALGVERTRNELIQFLTDTIYDEDEVLLVLAEQLGNFTPLVGGPDHVHCLLLPLENLATVEETVVRDKAVESLRKIADKHSSASLEEHFVPMLRRLATGDWFTSRTSACGLFSVVYPRVSPAIKSELKSMFRTLCRDDTPMVRRAAAAKLGEFAKVFEKTAVIEGLHSSLTDLHVDEQDSVRLLTVESAIAFGTLLDKANKKKLIEPILIELFDDKSWRVRYMVAEKLIEIQNVLGEDMDTTHLVNMYTNLLKDPEGEVRCAATQRLQEFALNLPEDKRQNIICNSLLNVAKELVTDGNQLVKSELAGVIMGLAPLIGKEQTVSELLPIYMQLLNDQTPEVRLNIISSLDKVNEVIGAAQLSTSLLPAIVGLAEDGKWRVRLAIVQFMPLLASQLGQEFFDEKLLPLCLNWLTDHVFSIREASTLIMKELTQKFGGQWASTNIVPKMQKLQKDTNYLQRMTCLFCLNTLSEAMTQEQILKEIMPIVKDLVEDDVPNVRFNAAKSLKRIGKNLTPSTLTSEVKPLLEKLGKDSDFDVRYFSEEAKNSLGL	not soluble
MSWQQRVDDALTARRVTDTLRRRYVVSQGAGRWLVANGRQYLNFSSNDYLGLSQHPQIIRAWQQAATRFGVGSGGSGHISGYSVAHQALEEELAQWLGYPRALLFISGFAANQAVITALMKKNDRIVADRLSHASLLEAANLSPAQLRRFIHNDTQHLSRLLQSPCVGQQLVVTEGVYSMDGDSAPLAEIQHIARRHHAWLLVDDAHGIGVTGDEGRGTCWLRGVKPELLVVTFGKGFGVSGAAVLCSESVADYLLQFARHLVYSTSMPPAQAQALSASLAVIRSDEGGERREKLAALVQRFRAGVNASRFTLLNAHSAIQPLIVGDNSRALRLAEALRQQGCWATAIRPPTVPVGTARLRLTLTQAHEACDIDRLLEVLHGAGE	not soluble
MSWQTYVDDHLMCDIDGHRLTAAAIIGHDGSVWAQSSSFPQFKSDEVAAVMKDFDEPGSLAPTGLHLGGTKYMVIQGEPGAVIRGKKGSGGITVKRTGQALIIGIYDEPLTPGQCNMIVERLGDYLLDQGL	soluble
MSWRYSILTVDGSFKIFIPWEIFLTWNFLSAAWLNSTESNTYIHYSTCWGTSDYTLNISVIEATTEKLVDTRLLTTLENATAWINSNSIDEDEDDMPHATNVADRLDGLSLSKRVYSICHYEF	not soluble
MSYDVIVRNGLWFDGTGRPPQVRTLGIRDGVVATVSAKPLDETGCPEVIDAGGKWVVPGFIDVHTHYDAEVLLDPGLRESVRHGVTTVLLGMCSLSTVYSDAEDAADLFSRVEAVPRQFVLGALESRKTWSNPAEYVAAIDALPLGPNIASLLGHSDLRASVLGLDRATTRGVVPTDDELETMADRLDAALDAGMLGMSGMDAAIDKLDGDRFRSRALPSTFATWRERRRLIKVLRKRGRILQSAPNVAKAQEALNFFLESSSLFGRRRGVRMSLLVSADAKSSPGAARVIGMGTRLLNKTLDAKVRFQHLPVPFELYSDGIDLPVFEEFGAGTAALHLRDQLERNKLLADPEYRRRFRRSFDRRKLGPTLWHRDFHDATIVECPDESLIGKTFGRIADERGIHPLDAFLDVLVDNGEKNVRWTTIVANHRPKVLDQLANDPAVHMGFSDAGAHLRNMAFYNYPLRLLKRVRDAQLSGRPFLTTERAVYRLTAEVADWFGVDAGTLREGDRADFVVIDPNCLNSDVDAYHEETVPFYGGLSRMVNRNDDAVVATAVNGTVVFGKGEFRDGYGDTVKSGRYLRAGADSRLKTAVLEHHHHHH	not soluble
MSYGPQLPAFLMKGQIKENEVDDEAEEGAPQVYGPVIPGMEEPKNEKEKHDDQEETSVFGPSIPKEVREKLQNVENPAEDDEEDEEFPSQSYGPSIPSNFRPTVGPSIPGTFGDDSDEDIGPMPVAKGDEEKEAIDRAYRMVLQKEAEDDEKNFQPKREEWMTSVPKKLGNFGLGARTFKKGTTSERDASWEDAPGAKKRRNEETRSARSVGIAAADARQAAIVAEKTSGPSLLEIHQKKRDEKVKDAGYAQGERRPFDREKDMEVRGLKPGGSKEAVDRMKEFADRFANSKDQRFL	not soluble
